Test results taken from patent publication US20220235123A1 (UNIVERSITY OF TORONTO, published 2022).
Positions count from the first letter of the chain named.

Legend:
[1] = target: recombinant human vascular endothelial growth factor (hVEGF) 121 (human) (UniProt P15692); experiment: single point competitive phage-ELISA: residual binding of the Fab-phage to hVEGF after competition with 1 nM hVEGF
[2] = target: T1, recombinant human VEGF 165 isoform (human, UniProt P15692 27-191); experiment: competitive ELISA in solution, 10 pM hVEGF-165, free VEGF read with Quantikine kit
T1 construct: mature
Description: (§1) Kd calculated from the data fitted with a 5 parameter asymmetric model with Prism software.
Target sequence in this assay (P15692 other isoform, or with tags, fused parts or gaps): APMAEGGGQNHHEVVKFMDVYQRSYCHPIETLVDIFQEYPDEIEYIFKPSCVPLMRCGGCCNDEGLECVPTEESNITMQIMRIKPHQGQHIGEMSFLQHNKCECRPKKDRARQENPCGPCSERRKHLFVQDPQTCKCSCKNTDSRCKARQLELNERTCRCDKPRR

[3] = target: T2, recombinant human vascular endothelial growth factor (hVEGF) 121 (human, UniProt P15692 27-147); experiment: competitive ELISA, 100 pM Fab with serial dilutions of hVEGF-121, free Fab caught on hVEGF-121 plate; Kd estimated from IC50
T2 construct: mature; also called human VEGF-A121; hVEGF 121 isoform
T2 sequence (looked up): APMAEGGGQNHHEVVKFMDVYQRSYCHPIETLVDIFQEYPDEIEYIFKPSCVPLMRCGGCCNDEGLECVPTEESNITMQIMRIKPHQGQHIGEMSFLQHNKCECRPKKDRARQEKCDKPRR

[4] = target: T2, recombinant human vascular endothelial …; experiment: competitive Fab-ELISA (hVEGF)
[5] = target: T2, recombinant human vascular endothelial …; experiment: single point competitive phage-ELISA: residual binding of the Fab-phage to hVEGF after competition with 1 nM hVEGF
[6] = target: T2, recombinant human vascular endothelial …; experiment: competitive Fab-ELISA
[7] = target: T2, recombinant human vascular endothelial …; experiment: SPR, off rate of hVEGF-121 binding
[8] = target: T2, recombinant human vascular endothelial …; experiment: competitive ELISA with soluble Fab (column 'Affinity measured by competitive ELISA'); hVEGF, isoform not told in the legend
[9] = target: T2, recombinant human vascular endothelial …; experiment: competitive Fab-ELISA, data and fit for the Kd of panel A; x axis printed as LOG([Fab] nM) with ticks 10^-6 to 10^2; hVEGF, isoform not told
[10] = target: T1, recombinant human VEGF 165 isoform; experiment: competitive ELISA in solution: 10 pM hVEGF-165 incubated with serial dilutions of the Fab; hVEGF-165 captured and detected with the Quantikine human VEGF ELISA kit
Description: FIG. 20. Competitive-ELISA. […] Kd was estimated using IC50 calculated from the data fitted with a 5 parameter asymmetric model with Prism software are shown in the table at the bottom of the figure.
as §1

[11] = target: T1, recombinant human VEGF 165 isoform; experiment: competitive ELISA in solution: 5 pM hVEGF-165 incubated with serial dilutions of the Fab; hVEGF-165 captured and detected with the Quantikine human VEGF ELISA kit
Description: FIG. 11. Competitive Fab-ELISA.
Since library FF01159-1 was designed with a deletion of one residue near the end of CDR-L2 (Kabat), the selected Fabs FF03033-4 and FF03033-8 were mutagenized to reintroduce previously deleted tyrosine residue back at the deleted position.

[12] = target: T1, recombinant human VEGF 165 isoform; experiment: cell-based or functional assay
[13] = target: T1, recombinant human VEGF 165 isoform; experiment: competitive ELISA in solution: 5 pM hVEGF-165 incubated with serial dilutions of the antibody; hVEGF-165 captured and detected with the Quantikine human VEGF ELISA kit; 5 parameter fit
[14] = target: T1, recombinant human VEGF 165 isoform; experiment: competitive ELISA in solution: 5 pM hVEGF-165 incubated with serial dilutions of the antibody; hVEGF-165 captured and detected with the Quantikine human VEGF ELISA kit

B1: FF0117-A10 (Fab, V domains shown)
VH: EVQLVESGGGLVQPGGSLRLSCAASGFDLFHYSIHWVRQAPGKGLEWVAYIYPSYGYTYYADSVKGRFTISADTSKNTAYLQMNSLRAEDTAVYYCARHAWYYGWALDYWGQGTLVTVSS
VL: DIQMTQSPSSLSASVGDRVTITCRASQSVSSAVAWYQQKPGKAPKLLIYSASSLYSGVPSRFSGSRSGTDFTLTISSLQPEDFATYYCQQRGWYLFTFGQGTKVEIK
Work on B1 yielded a Residual binding of competitive phage-ELISA 1nM [1] of 7%.

B2: Fab 201 (Variant 201, produced from Clone #201) (Fab, V domains shown)
VH: B1 VH with A106G
VL: DIQMTQSPSSLSASVGDRVTITCRASQAAYGRVAWYQQKPGKAPKLLIYKASELYAGVPSRFSGSRSGTDFTLTISSLQPEDFATYYCQQRGWYLFTFGQGTKVEIKR
notes: also called Fab-F8.y
Work on B2 yielded a Kd [2] of 25 pM and a Kd [3] of 110 pM.

B3: FF0117-A8 (Fab, V domains shown)
VH: B1 VH with Y103S
VL: B1 VL
notes: fourth generation Fab from the library based on FF0188-H5
With B3 the Kd [4] was 130 pM and the “Residual binding of competitive phage-ELISA 1nM” value (shortened to “Residual binding”) [5] was 17%.

B4: FF0117-A3 (Fab, V domains shown)
VH: B1 VH with Y103F
VL: B1 VL
notes: as for B3
With B4 the Kd [4] was 60 pM and the “Residual binding” value [5] was 7%.

B5: FF0117-A11 (Fab, V domains shown)
VH: B1 VH with Y103W
VL: B1 VL
notes: as for B3
B5 was tested, and the Kd [4] was 30 pM and the “Residual binding” value [5] was 5%.

B6: FF0117-A5 (Fab, V domains shown)
VH: B1 VH with A106G
VL: B1 VL
notes: Fourth generation Fab; also called FF0117-A5 (2); Fab-A5
In the case of B6, the Kd [6] is reported as 80 pM, the koff [7] is reported as 0.000255 s⁻¹ and the “Residual binding” value [5] is reported as 14%.

B7: FF0188-B10 (Fab, V domains shown)
VH: B1 VH with Y103S, L107M
VL: B1 VL
notes: third generation Fab from libraries based on FF0158-C4; also called FF01088-B10
B7 was tested, and the Kd [8] was 410 pM and the “IC50 (read off the curve)” value [9] was ~400 pM.

B8: Fab variant 216 (Fab 216, derived from Clone #201) (Fab, V domains shown)
VH: B1 VH with F30D, A106G
VL: B2 VL
For B8, the Kd [2] was 35 pM and the “IC50 (read off the curve)” value [10] was ~40 pM.

B9: FF0188-H5 (Fab, V domains shown)
VH: B1 VH with Y103S, L107M
VL: B1 VL
notes: third generation Fab, parent of the FF0117 library; also called FF0188-H5(2)
For B9, the Kd [4] was 400 pM, the Kd [8] was 450 pM and the “IC50 (read off the curve)” value [9] was ~400 pM.

B10: Fab FF03046-2 (Fab, V domains shown)
VH: B1 VH with A106G
VL: B2 VL
notes: also called FF0346-2
For B10, the “IC50 (read off the curve)” value [11] was ~90 pM, the “EC50, HUVEC proliferation assay” value [12] was 200 pM and the Kd [13] was 90 pM. For the same binder, the “IC50 (read off the curve)” value [14] was ~90 pM.

B11: FF0158-C4 (Fab, V domains shown)
VH: B1 VH with D28N, F30Y, H31Y, Y103S, L107M
VL: B1 VL
notes: Second generation Fab, Fab-phage in the single point assay; also called FF0158-C4 (2)
In the case of B11, the Kd [8] is reported as 150 pM and the “IC50 (read off the curve)” value [9] is reported as ~100 pM.
